The numbers were not newly measured in paper PMC8602370, which cites them from elsewhere.

For this data set, the target named is PARP1 (Homo sapiens) (UniProt P09874).
Sequence of PARP1 (Homo sapiens) (P09874 2-1014): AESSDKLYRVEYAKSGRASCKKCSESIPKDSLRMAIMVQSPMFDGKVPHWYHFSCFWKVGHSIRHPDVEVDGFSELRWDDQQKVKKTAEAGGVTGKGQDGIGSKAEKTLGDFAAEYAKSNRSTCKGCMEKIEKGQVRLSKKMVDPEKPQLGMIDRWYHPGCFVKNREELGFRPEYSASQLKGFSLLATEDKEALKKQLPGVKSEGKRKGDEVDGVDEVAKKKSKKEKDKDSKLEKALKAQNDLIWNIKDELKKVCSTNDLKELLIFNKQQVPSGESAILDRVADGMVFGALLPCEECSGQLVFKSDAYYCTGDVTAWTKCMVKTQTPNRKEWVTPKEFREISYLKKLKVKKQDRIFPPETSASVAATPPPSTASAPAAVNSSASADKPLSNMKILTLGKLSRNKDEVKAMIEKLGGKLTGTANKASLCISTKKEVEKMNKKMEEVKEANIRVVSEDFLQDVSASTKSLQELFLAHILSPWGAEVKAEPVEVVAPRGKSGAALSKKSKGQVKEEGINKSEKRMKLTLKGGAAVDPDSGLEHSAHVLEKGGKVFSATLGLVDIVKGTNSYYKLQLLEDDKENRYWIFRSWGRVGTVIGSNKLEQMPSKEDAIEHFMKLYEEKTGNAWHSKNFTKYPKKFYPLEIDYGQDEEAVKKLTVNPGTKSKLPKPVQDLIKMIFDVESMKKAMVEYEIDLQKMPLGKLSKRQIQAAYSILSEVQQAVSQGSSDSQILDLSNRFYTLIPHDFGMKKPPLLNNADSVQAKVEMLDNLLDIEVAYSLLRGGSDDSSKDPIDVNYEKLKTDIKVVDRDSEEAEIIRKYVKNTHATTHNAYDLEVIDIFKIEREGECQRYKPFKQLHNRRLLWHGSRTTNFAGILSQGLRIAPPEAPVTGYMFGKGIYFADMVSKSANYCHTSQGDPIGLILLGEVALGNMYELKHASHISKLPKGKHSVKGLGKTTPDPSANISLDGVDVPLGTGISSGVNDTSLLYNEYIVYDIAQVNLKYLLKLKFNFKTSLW

Sequence of HPF1 (Q9NWY4 whole entry): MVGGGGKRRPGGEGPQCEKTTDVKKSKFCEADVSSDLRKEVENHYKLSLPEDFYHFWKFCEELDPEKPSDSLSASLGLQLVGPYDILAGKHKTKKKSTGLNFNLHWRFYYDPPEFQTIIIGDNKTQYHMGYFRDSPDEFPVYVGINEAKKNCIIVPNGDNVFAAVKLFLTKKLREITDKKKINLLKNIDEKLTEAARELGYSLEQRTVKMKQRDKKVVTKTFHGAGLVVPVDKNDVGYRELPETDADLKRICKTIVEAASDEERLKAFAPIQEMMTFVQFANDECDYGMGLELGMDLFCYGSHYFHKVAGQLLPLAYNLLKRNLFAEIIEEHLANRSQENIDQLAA

A word on the Kd: it is the equilibrium constant for the complex coming apart. On to HPF1 (from UniProt Q9NWY4), for which the Kd is 3.5 µM.
